Experimental findings from IntAct's records for PubMed 32911434 are described below.

B1: Nuclear factor erythroid 2-related factor 2 (Homo sapiens), Q16236 (parent)
chain: MMDLELPPPGLPSQQDMDLIDILWRQDIDLGVSREVFDFSQRRKEYELEKQKKLEKERQEQLQKEQEKAFFAQLQLDEETGEFLPIQPAQHIQSETSGSANYSQVAHIPKSDALYFDDCMQLLAQTFPFVDDNEVSSATFQSLVPDIPGHIESPVFIATNQAQSPETSVAQVAPVDLDGMQQDIEQVWEELLSIPELQCLNIENDKLVETTMVPSPEAKLTEVDNYHFYSSIPSMEKEVGNCSPHFLNAFEDSFSSILSTEDPNQLTVNSLNSDATVNTDFGDEFYSAFIAEPSISNSMPSPATLSHSLSELLNGPIDVSDLSLCKAFNQNHPESTAEFNDSDSGISLNTSPSVASPEHSVESSSYGDTLLGLSDSEVEELDSAPGSVKQNGPKTPVHSSGDMVQPLSPSQGQSTHVHDAQCENTPEKELPVSPGHRKTPFTKDKHSSRLEAHLTRDELRAKALHIPFPVEKIINLPVVDFNEMMSKEQFNEAQLALIRDIRRRGKNKVAAQNCRKRKLENIVELEQDLDHLKDEKEKLLKEKGENDKSLHLLKKQLSTLYLEVFSMLRDEDGKPYSPSEYSLQQTRDGNVFLVPKSKKPDVKKN
partner: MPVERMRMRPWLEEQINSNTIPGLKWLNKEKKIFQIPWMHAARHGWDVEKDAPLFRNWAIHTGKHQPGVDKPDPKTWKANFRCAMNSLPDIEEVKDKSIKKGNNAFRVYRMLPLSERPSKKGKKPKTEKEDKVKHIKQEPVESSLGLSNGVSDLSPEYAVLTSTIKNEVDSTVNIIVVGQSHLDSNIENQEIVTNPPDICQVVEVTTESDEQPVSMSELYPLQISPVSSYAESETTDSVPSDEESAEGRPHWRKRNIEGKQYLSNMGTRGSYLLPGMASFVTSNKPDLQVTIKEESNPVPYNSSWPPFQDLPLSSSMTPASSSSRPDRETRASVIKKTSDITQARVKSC
B2: Nuclear factor erythroid 2-related factor 2 (Homo sapiens), Q16236 (parent)
chain: B1 chain
partner: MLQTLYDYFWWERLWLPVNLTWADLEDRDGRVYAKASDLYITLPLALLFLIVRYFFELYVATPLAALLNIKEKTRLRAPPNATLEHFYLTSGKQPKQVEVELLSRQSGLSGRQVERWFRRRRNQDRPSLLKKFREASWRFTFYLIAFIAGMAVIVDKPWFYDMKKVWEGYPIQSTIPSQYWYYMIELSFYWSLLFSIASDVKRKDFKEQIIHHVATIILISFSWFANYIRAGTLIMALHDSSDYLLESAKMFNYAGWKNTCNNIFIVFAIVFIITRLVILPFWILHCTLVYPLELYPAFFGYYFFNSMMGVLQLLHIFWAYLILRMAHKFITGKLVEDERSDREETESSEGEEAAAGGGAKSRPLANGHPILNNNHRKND
B3: Nuclear factor erythroid 2-related factor 2 (Homo sapiens), Q16236 (parent)
chain: B1 chain

One experiment covers variants of B1. The settings on record: with irf2_human IRF2, P14316.
For the variant T559D, the “effect of a mutation on the interaction” value is “decreasing interaction strength”.

Turning to S408A, the “effect of a mutation on the interaction” value is on record as “decreasing interaction strength”.

Regarding Y576E, the “effect of a mutation on the interaction” value is given as “decreasing interaction strength”.

Regarding Y576F, the “effect of a mutation on the interaction” value is reported as “decreasing interaction strength”.

Variants of B2 are the subject of another experiment. Conditions: with cers2_human CERS2, Q96G23.
Take Y576E: the “effect of a mutation on the interaction” value is listed as “increasing interaction strength”.

In a further experiment the parent is B3. Conditions: with brpf3_human BRPF3, Q9ULD4.
Chain of brpf3_human BRPF3, Q9ULD4 (Q9ULD4 whole entry): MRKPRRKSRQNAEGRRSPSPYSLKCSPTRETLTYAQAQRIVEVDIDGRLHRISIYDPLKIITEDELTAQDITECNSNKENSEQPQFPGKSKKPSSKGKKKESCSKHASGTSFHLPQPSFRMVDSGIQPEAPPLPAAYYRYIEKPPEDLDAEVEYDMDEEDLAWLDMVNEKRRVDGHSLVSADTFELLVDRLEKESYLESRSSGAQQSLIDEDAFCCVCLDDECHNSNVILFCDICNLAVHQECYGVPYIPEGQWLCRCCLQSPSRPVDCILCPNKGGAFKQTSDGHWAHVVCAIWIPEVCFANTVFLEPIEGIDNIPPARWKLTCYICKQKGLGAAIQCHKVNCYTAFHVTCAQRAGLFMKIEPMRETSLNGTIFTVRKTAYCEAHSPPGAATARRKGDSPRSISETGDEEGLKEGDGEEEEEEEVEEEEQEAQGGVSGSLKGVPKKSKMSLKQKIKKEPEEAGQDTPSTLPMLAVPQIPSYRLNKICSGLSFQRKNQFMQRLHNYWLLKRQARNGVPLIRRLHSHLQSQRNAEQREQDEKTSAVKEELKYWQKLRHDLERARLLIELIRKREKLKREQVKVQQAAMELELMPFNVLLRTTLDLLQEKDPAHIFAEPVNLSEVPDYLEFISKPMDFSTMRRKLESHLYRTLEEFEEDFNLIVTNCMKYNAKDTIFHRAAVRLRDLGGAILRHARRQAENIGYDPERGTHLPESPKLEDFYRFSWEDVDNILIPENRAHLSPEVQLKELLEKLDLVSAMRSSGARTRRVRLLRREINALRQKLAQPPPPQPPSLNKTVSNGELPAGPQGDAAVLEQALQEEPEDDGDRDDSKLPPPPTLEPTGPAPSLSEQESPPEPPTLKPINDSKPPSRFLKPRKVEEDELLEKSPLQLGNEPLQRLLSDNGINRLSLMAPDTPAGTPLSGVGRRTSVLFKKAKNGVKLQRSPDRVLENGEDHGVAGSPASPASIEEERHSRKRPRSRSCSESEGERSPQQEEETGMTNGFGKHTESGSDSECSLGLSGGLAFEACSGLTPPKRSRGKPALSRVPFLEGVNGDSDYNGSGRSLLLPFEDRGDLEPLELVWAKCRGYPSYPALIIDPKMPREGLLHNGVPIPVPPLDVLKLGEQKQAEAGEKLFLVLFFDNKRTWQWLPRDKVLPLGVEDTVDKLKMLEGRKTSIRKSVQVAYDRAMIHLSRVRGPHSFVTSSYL
Take T559D: the “effect of a mutation on the interaction” value is given as “decreasing interaction strength”.

As for Y576F, the “effect of a mutation on the interaction” value is reported as “decreasing interaction strength”.

As for Y576E, the “effect of a mutation on the interaction” value was “decreasing interaction strength”.

Take S408A: the “effect of a mutation on the interaction” value is listed as “decreasing interaction strength”.

Variants of B3 are the subject of another experiment. The settings on record: with ima1_human KPNA2, P52292.
For T559D, the “effect of a mutation on the interaction” value is on record as “decreasing interaction strength”.

For Y576E, the “effect of a mutation on the interaction” value is “decreasing interaction strength”.

A further experiment covers variants of B3. Conditions: with tf65_human RELA.
As for S40D, the “effect of a mutation on the interaction” value is reported as “increasing interaction strength”.

Another experiment covers variants of B3. The settings on record: with apex1_human APEX1, P27695.
Chain of apex1_human APEX1, P27695 (P27695 whole entry): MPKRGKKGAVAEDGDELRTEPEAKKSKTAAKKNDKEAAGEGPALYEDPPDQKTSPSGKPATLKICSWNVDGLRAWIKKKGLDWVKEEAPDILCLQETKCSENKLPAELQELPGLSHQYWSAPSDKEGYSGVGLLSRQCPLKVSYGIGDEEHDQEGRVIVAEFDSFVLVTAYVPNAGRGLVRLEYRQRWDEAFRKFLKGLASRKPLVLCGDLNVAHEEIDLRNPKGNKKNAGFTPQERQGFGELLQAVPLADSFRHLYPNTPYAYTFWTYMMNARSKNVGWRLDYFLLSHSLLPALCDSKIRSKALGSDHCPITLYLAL
On to S40D, for which the “effect of a mutation on the interaction” value is “increasing interaction strength”.
